Patent publication US20180016327A1 (Chugai, published 2018)

biological target: T1, human C5 (human, UniProt P01031 19-673; P01031 678-1676, Beta and alpha chains are disulfide-linked and the protein is glycosylated.); assay: Biacore, captured antibody, pH 7.4, 37 C;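 note: biacore binding response of anti-C5 antibody light chain variants captured on chip with human C5 injected, ACES running buffer containing 1.2 mM CaCl₂, parent light chain antibody set to 100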
T1 construct: Either in-house recombinant C5 or plasma derived C5 (CALBIOCHEM) was used; also called recombinant human C5; plasma derived human C5

Row | Binder | % binding (parent = 100)
1 | CFP0015 15L 96Y (antibody, V domains shown) VH: QVQLLESGGGLVQPGGSLRLSCAASGFTFSSYAMSWVRQAPGKGLEWVSAISGSGGSTYYADSVKGRFTISRDNSKNTLYLQMNSLRAEDTAVYYCARGDQIWYDQWYYFDMWGQGTLVTVSS VL: DIQMTQSPSSLSASVGDRVTITCRASQSIEDDLAWYQQKPGKAPKLLIYEASNLQSGVPSRFSGSGSGTDFTLTISSLQPEDFATYYCQQYDSSPYTFGQGTKVEIK | 7.5%
2 | CFP0011 (antibody, V domains shown, IgG format) VH: QVQLVQSGAEVKKPGSSVKVSCKASGGTFSSYAISWVRQAPGQGLEWMGGIIPIFGTANYAQKFQGRVTITADESTSTAYMELSSLRSEDTAVYYCARDMSEFLGWSNYYSYPMDVWGQGTTVTVSS VL: DIQMTQSPSSLSASVGDRVTITCRASQSIEDDLAWYQQKPGKAPKLLIYHASSLQSGVPSRFSGSGSGTDFTLTISSLQPEDFATYYCQQSDNSPYTFGQGTKVEIK | 100%
3 | CFP0011 11L 32Q (antibody, V domains shown) VH: QVQLVQSGAEVKKPGSSVKVSCKASGGTFSSYAISWVRQAPGQGLEWMGGIIPIFGTANYAQKFQGRVTITADESTSTAYMELSSLRSEDTAVYYCARDMSEFLGWSNYYSYPMDVWGQGTTVTVSS VL: DIQMTQSPSSLSASVGDRVTITCRASQSIEDQLAWYQQKPGKAPKLLIYHASSLQSGVPSRFSGSGSGTDFTLTISSLQPEDFATYYCQQSDNSPYTFGQGTKVEIK | 18.4%
4 | CFP0011 11L 50E (antibody, V domains shown) VH: QVQLVQSGAEVKKPGSSVKVSCKASGGTFSSYAISWVRQAPGQGLEWMGGIIPIFGTANYAQKFQGRVTITADESTSTAYMELSSLRSEDTAVYYCARDMSEFLGWSNYYSYPMDVWGQGTTVTVSS VL: DIQMTQSPSSLSASVGDRVTITCRASQSIEDDLAWYQQKPGKAPKLLIYEASSLQSGVPSRFSGSGSGTDFTLTISSLQPEDFATYYCQQSDNSPYTFGQGTKVEIK | 75.6%
5 | CFP0011 11L 53H (antibody, V domains shown) VH: QVQLVQSGAEVKKPGSSVKVSCKASGGTFSSYAISWVRQAPGQGLEWMGGIIPIFGTANYAQKFQGRVTITADESTSTAYMELSSLRSEDTAVYYCARDMSEFLGWSNYYSYPMDVWGQGTTVTVSS VL: DIQMTQSPSSLSASVGDRVTITCRASQSIEDDLAWYQQKPGKAPKLLIYHASHLQSGVPSRFSGSGSGTDFTLTISSLQPEDFATYYCQQSDNSPYTFGQGTKVEIK | 115%
6 | CFP0011 11L 91H (antibody, V domains shown) VH: QVQLVQSGAEVKKPGSSVKVSCKASGGTFSSYAISWVRQAPGQGLEWMGGIIPIFGTANYAQKFQGRVTITADESTSTAYMELSSLRSEDTAVYYCARDMSEFLGWSNYYSYPMDVWGQGTTVTVSS VL: DIQMTQSPSSLSASVGDRVTITCRASQSIEDDLAWYQQKPGKAPKLLIYHASSLQSGVPSRFSGSGSGTDFTLTISSLQPEDFATYYCQQHDNSPYTFGQGTKVEIK | 320%
7 | CFP0011 11L 53N (antibody, V domains shown) VH: QVQLVQSGAEVKKPGSSVKVSCKASGGTFSSYAISWVRQAPGQGLEWMGGIIPIFGTANYAQKFQGRVTITADESTSTAYMELSSLRSEDTAVYYCARDMSEFLGWSNYYSYPMDVWGQGTTVTVSS VL: DIQMTQSPSSLSASVGDRVTITCRASQSIEDDLAWYQQKPGKAPKLLIYHASNLQSGVPSRFSGSGSGTDFTLTISSLQPEDFATYYCQQSDNSPYTFGQGTKVEIK | 105%
8 | CFP0011 11L 50A (antibody, V domains shown) VH: QVQLVQSGAEVKKPGSSVKVSCKASGGTFSSYAISWVRQAPGQGLEWMGGIIPIFGTANYAQKFQGRVTITADESTSTAYMELSSLRSEDTAVYYCARDMSEFLGWSNYYSYPMDVWGQGTTVTVSS VL: DIQMTQSPSSLSASVGDRVTITCRASQSIEDDLAWYQQKPGKAPKLLIYAASSLQSGVPSRFSGSGSGTDFTLTISSLQPEDFATYYCQQSDNSPYTFGQGTKVEIK | 95.2%
9 | CFP0011 11L 30S (antibody, V domains shown) VH: QVQLVQSGAEVKKPGSSVKVSCKASGGTFSSYAISWVRQAPGQGLEWMGGIIPIFGTANYAQKFQGRVTITADESTSTAYMELSSLRSEDTAVYYCARDMSEFLGWSNYYSYPMDVWGQGTTVTVSS VL: DIQMTQSPSSLSASVGDRVTITCRASQSISDDLAWYQQKPGKAPKLLIYHASSLQSGVPSRFSGSGSGTDFTLTISSLQPEDFATYYCQQSDNSPYTFGQGTKVEIK | 44.5%
10 | CFP0011 11L 31N (antibody, V domains shown) VH: QVQLVQSGAEVKKPGSSVKVSCKASGGTFSSYAISWVRQAPGQGLEWMGGIIPIFGTANYAQKFQGRVTITADESTSTAYMELSSLRSEDTAVYYCARDMSEFLGWSNYYSYPMDVWGQGTTVTVSS VL: DIQMTQSPSSLSASVGDRVTITCRASQSIENDLAWYQQKPGKAPKLLIYHASSLQSGVPSRFSGSGSGTDFTLTISSLQPEDFATYYCQQSDNSPYTFGQGTKVEIK | 125%
11 | CFP0011 11L 53T (antibody, V domains shown) VH: QVQLVQSGAEVKKPGSSVKVSCKASGGTFSSYAISWVRQAPGQGLEWMGGIIPIFGTANYAQKFQGRVTITADESTSTAYMELSSLRSEDTAVYYCARDMSEFLGWSNYYSYPMDVWGQGTTVTVSS VL: DIQMTQSPSSLSASVGDRVTITCRASQSIEDDLAWYQQKPGKAPKLLIYHASTLQSGVPSRFSGSGSGTDFTLTISSLQPEDFATYYCQQSDNSPYTFGQGTKVEIK | 98.9%
12 | CFP0011 11L 32N (antibody, V domains shown) VH: QVQLVQSGAEVKKPGSSVKVSCKASGGTFSSYAISWVRQAPGQGLEWMGGIIPIFGTANYAQKFQGRVTITADESTSTAYMELSSLRSEDTAVYYCARDMSEFLGWSNYYSYPMDVWGQGTTVTVSS VL: DIQMTQSPSSLSASVGDRVTITCRASQSIEDNLAWYQQKPGKAPKLLIYHASSLQSGVPSRFSGSGSGTDFTLTISSLQPEDFATYYCQQSDNSPYTFGQGTKVEIK | 3.6%
13 | CFP0011 11L 30D (antibody, V domains shown) VH: QVQLVQSGAEVKKPGSSVKVSCKASGGTFSSYAISWVRQAPGQGLEWMGGIIPIFGTANYAQKFQGRVTITADESTSTAYMELSSLRSEDTAVYYCARDMSEFLGWSNYYSYPMDVWGQGTTVTVSS VL: DIQMTQSPSSLSASVGDRVTITCRASQSIDDDLAWYQQKPGKAPKLLIYHASSLQSGVPSRFSGSGSGTDFTLTISSLQPEDFATYYCQQSDNSPYTFGQGTKVEIK | 71.4%
14 | CFP0011 11L 50D (antibody, V domains shown) VH: QVQLVQSGAEVKKPGSSVKVSCKASGGTFSSYAISWVRQAPGQGLEWMGGIIPIFGTANYAQKFQGRVTITADESTSTAYMELSSLRSEDTAVYYCARDMSEFLGWSNYYSYPMDVWGQGTTVTVSS VL: DIQMTQSPSSLSASVGDRVTITCRASQSIEDDLAWYQQKPGKAPKLLIYDASSLQSGVPSRFSGSGSGTDFTLTISSLQPEDFATYYCQQSDNSPYTFGQGTKVEIK | 58.2%
15 | CFP0011 11L 91R (antibody, V domains shown) VH: QVQLVQSGAEVKKPGSSVKVSCKASGGTFSSYAISWVRQAPGQGLEWMGGIIPIFGTANYAQKFQGRVTITADESTSTAYMELSSLRSEDTAVYYCARDMSEFLGWSNYYSYPMDVWGQGTTVTVSS VL: DIQMTQSPSSLSASVGDRVTITCRASQSIEDDLAWYQQKPGKAPKLLIYHASSLQSGVPSRFSGSGSGTDFTLTISSLQPEDFATYYCQQRDNSPYTFGQGTKVEIK | -2.6%
16 | CFP0011 11L 31H (antibody, V domains shown) VH: QVQLVQSGAEVKKPGSSVKVSCKASGGTFSSYAISWVRQAPGQGLEWMGGIIPIFGTANYAQKFQGRVTITADESTSTAYMELSSLRSEDTAVYYCARDMSEFLGWSNYYSYPMDVWGQGTTVTVSS VL: DIQMTQSPSSLSASVGDRVTITCRASQSIEHDLAWYQQKPGKAPKLLIYHASSLQSGVPSRFSGSGSGTDFTLTISSLQPEDFATYYCQQSDNSPYTFGQGTKVEIK | 100%
17 | CFP0011 11L 31A (antibody, V domains shown) VH: QVQLVQSGAEVKKPGSSVKVSCKASGGTFSSYAISWVRQAPGQGLEWMGGIIPIFGTANYAQKFQGRVTITADESTSTAYMELSSLRSEDTAVYYCARDMSEFLGWSNYYSYPMDVWGQGTTVTVSS VL: DIQMTQSPSSLSASVGDRVTITCRASQSIEADLAWYQQKPGKAPKLLIYHASSLQSGVPSRFSGSGSGTDFTLTISSLQPEDFATYYCQQSDNSPYTFGQGTKVEIK | 112%
18 | CFP0011 11L 30A (antibody, V domains shown) VH: QVQLVQSGAEVKKPGSSVKVSCKASGGTFSSYAISWVRQAPGQGLEWMGGIIPIFGTANYAQKFQGRVTITADESTSTAYMELSSLRSEDTAVYYCARDMSEFLGWSNYYSYPMDVWGQGTTVTVSS VL: DIQMTQSPSSLSASVGDRVTITCRASQSIADDLAWYQQKPGKAPKLLIYHASSLQSGVPSRFSGSGSGTDFTLTISSLQPEDFATYYCQQSDNSPYTFGQGTKVEIK | 100%
19 | CFP0011 11L 34N (antibody, V domains shown) VH: QVQLVQSGAEVKKPGSSVKVSCKASGGTFSSYAISWVRQAPGQGLEWMGGIIPIFGTANYAQKFQGRVTITADESTSTAYMELSSLRSEDTAVYYCARDMSEFLGWSNYYSYPMDVWGQGTTVTVSS VL: DIQMTQSPSSLSASVGDRVTITCRASQSIEDDLNWYQQKPGKAPKLLIYHASSLQSGVPSRFSGSGSGTDFTLTISSLQPEDFATYYCQQSDNSPYTFGQGTKVEIK | 29.2%
20 | CFP0011 11L 30H (antibody, V domains shown) VH: QVQLVQSGAEVKKPGSSVKVSCKASGGTFSSYAISWVRQAPGQGLEWMGGIIPIFGTANYAQKFQGRVTITADESTSTAYMELSSLRSEDTAVYYCARDMSEFLGWSNYYSYPMDVWGQGTTVTVSS VL: DIQMTQSPSSLSASVGDRVTITCRASQSIHDDLAWYQQKPGKAPKLLIYHASSLQSGVPSRFSGSGSGTDFTLTISSLQPEDFATYYCQQSDNSPYTFGQGTKVEIK | 13.6%
